{"source": "patent US7244591", "proteins": {"B1": {"name": "Yapsin 1 (protein)", "chain": "ADGYEEIIITNQQSFYSVDLEVGTPPQNVTVLVDTGSSDLWIMGSDNPYCSSNSMGSSRRRVIDKRDDSSSGGSLINDINPFGWLTGTGSAIGPTATGLGGGSGTATQSVPASEATMDCQQYGTFSTSGSSTFRSNNTYFSISYGDGTFASGTFGTDVLDLSDLNVTGLSFAVANETNSTMGVLGIGLPELEVTYSGSTASHSGKAYKYDNFPIVLKNSGAIKSNTYSLYLNDSDAMHGTILFGAVDHSKYTGTLYTIPIVNTLSASGFSSPIQFDVTINGIGISDSGSSNKTLTTTKIPALLDSGTTLTYLPQTVVSMIATELGAQYSSRIGYYVLDCPSDDSMEIVFDFGGFHINAPLSSFILSTGTTCLLGIIPTSDDTGTILGDSFLTNAYVVYDLENLEISMAQARYNTTSENIEIITSSVPSAVKAPGYTNTWSTSASIVTGGNIFTVNSSQTASFSGNLTTSTASATSTSSKRN"}}, "target": "T1, recombinant human parathyroid hormone (hPTH), intact molecule (1-84), P01270", "T1 chain": "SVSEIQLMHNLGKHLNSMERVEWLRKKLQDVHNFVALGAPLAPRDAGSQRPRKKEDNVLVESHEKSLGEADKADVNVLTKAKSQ", "data": [{"protein": "B1", "values": [{"measurement": "cleavage of secreted hPTH into the truncated d1 form (27-84), SDS-PAGE of culture supernatants of wild-type and yps1-disrupted strains", "result": "the main protease causative of the cleavage of hPTH in the early culture stage is Yapsin 1"}]}]}
